# Data: IntAct's records for PubMed 14732713
# B1: Rho-related GTP-binding protein RhoN (Homo sapiens), P52198 (parent)
# chain: MEGQSGRCKIVVVGDAECGKTALLQVFAKDAYPGSYVPTVFENYTASFEIDKRRIELNMWDTSGSSYYDNVRPLAYPDSDAVLICFDISRPETLDSVLKKWQGETQEFCPNAKVVLVGCKLDMRTDLATLRELSKQRLIPVTHEQGTVLAKQVGAVSYVECSSRSSERSVRDVFHVATVASLGRGHRQLRRTDSRRGMQRSAQLSGRPDRGNEGEIHKDRAKSCNLM
# partner: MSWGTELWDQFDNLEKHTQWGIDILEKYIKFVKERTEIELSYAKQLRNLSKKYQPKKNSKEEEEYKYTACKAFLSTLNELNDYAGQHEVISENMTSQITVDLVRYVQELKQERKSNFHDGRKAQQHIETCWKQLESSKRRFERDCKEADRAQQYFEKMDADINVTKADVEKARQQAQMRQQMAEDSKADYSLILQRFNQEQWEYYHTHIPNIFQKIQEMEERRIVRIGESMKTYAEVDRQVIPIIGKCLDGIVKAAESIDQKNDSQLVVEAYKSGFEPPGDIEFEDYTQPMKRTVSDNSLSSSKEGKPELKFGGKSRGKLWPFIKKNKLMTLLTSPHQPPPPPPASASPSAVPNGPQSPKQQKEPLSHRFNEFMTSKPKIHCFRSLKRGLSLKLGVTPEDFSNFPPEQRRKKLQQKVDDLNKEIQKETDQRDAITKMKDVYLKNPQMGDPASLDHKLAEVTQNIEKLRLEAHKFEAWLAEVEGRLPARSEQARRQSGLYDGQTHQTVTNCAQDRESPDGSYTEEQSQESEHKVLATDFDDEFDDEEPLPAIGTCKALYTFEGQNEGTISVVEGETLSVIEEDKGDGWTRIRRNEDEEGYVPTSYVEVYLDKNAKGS
# Variants of: B1
# Conditions: with fnbp1_rat Fnbp1, Q8R511
row,Variant,effect of a mutation on the interaction
1,A16V,increasing interaction
